# Where a chain is given by its changes, count along the chain named.
# T1: NCA on H647 cells (UniProt P40199 35-320, limits assumed)
# T1 construct: whole, on cells; Its identity is an inference
# T1 sequence (looked up): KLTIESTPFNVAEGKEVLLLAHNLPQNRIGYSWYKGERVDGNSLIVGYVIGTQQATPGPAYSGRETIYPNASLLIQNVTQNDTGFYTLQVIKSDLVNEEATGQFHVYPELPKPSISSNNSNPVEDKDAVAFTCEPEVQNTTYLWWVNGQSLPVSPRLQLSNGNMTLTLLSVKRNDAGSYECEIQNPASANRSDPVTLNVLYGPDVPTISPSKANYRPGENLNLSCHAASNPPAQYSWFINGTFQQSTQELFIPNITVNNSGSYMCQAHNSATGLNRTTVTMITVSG
# B1: DOM14-23 (other)
# chain: DIQMTQSPSSLSASVGDRVTITCRASQDIFPFLNWYQQKPGKAPELLIYRASILHSGVPSRFSGSGSGTDFTLTISSLQPEDFATYYCQQIARSPRTFGQGTKVEIKR
# notes: Anti-CD56 dAb
# B2: DOM14-63 (other)
# chain: DIQMTQSPSSLSASVGDRVTITCRASQNISRGLRWYQQKPGKAPKLLIYHASKLQSGVPSRFSGSGSGTDFTLTISSLQPEDFATYYCQQYKVFPGTFGQGTKVEIKR
# notes: Anti-CD56 dAb monomer
# B3: DOM14-70 (other)
# chain: DIQMTQSPSSLSASVGDRVTITCRASQEIGQWLNWYQQKPGKAPKLLIYWGSELQSGVPSRFSGSGSGTDFTLTISSLQPEDFATYYCQQVSRNPFTFGQGTKVEIKR
# notes: Anti-CD56 dAb monomer
# B4: DOM14-57 (other)
# chain: B3 chain with E28Q, G30D, Q31D, W32Y, G51T, E53L, V91S, S92A, R93H, N94R
# notes: Anti-CD56 dAb monomer
# B5: DOM14-62 (other)
# chain: DIQMTQSPSSLSASVGDRVTITCRASQNISYHLVWYQQKPGKAPKLLIYSSSNLQSGVPSRFSGSGSGTDFTLTISSLQPEDLATYYCQQLASWPHTLGQGTKVEIKR
# notes: Anti-CD56 dAb monomer
# B6: DOM14-68 (other)
# chain: DIQMTQSPSSLSASVGDRVTITCRASQEISGELTWYQQKPGKAPKLLIYFSSILQSGVPSRFSGSGSGTDFTLTISSLQPEDFATYYCQQRKLRPYTFGQGTKVEIKR
# notes: Anti-CD56 dAb monomer
# B7: DOM11-30-2 (other)
# chain: DIQMTQSPSSLSASVGDRVTITCRTSQKIENDLAWYQQKPGKAPKLLIYYTSILQSGVPSRFSGSGSGTDFTLTISSLQPEDFATYYCQQRRYVPATFGQGTKVEIKR
# B8: DOM11-30-1 (other)
# chain: B7 chain with T25A, Q27L, V94A
# B9: DOM11-30-3 (other)
# chain: B7 chain with T25A, K42N, Q55H
# B10: DOM11-3-1 (other)
# chain: DIQMTQSPSSLSASVGDRVTITCRASHNIDSRLSWYQQKPGKAPKLLIYRASVLQSGVPSRFRGSGSGTDFTLTISSLQPEDFATYYCQQWDMFPLSFGQGTKVEIKR
# B11: DOM11-3-2 (other)
# chain: B10 chain with H27Q, A51T, R63S, S97M
# B12: DOM13-65 (other)
# chain: DIQMTQSPSSLSASVGDRVTITCRASQSIGMLLSWYQQKPGKAPKLLIYAVSRLQSGVPSRFSGSGSGTDFTLTISSLQPEDYATYYCQQMQRPPITFGQGTKVEIKR
# notes: Anti-CEA dAb monomer
# B13: DOM13-64 (other)
# chain: B12 chain with M31T, S34N, V51S, Y83F, Q92N, P94V
# notes: Anti-CEA dAb monomer
# B14: DOM13-57 (other)
# chain: DIQMTQSPSSLSASVGDRVTITCRASQGIMYHLRWYQQKPGKAPRLLIYHGSTLQSGVPARFSGSGSGTDFTLTISSLQPEDFATYYCQQTWNAPLTFGQGTKVEIKR
# notes: Anti-CEA dAb monomer
# B15: DOM13-93 (other)
# chain: DIQMTQSPSSLSASVGDRVTITCRASQDIGNMLAWYQQKPGKAPKPLIYYASYLQSGVPSRFSGSGSGTDFTLTISSLQPEDFATYYCQQMRDYPVTFGQGTKVEIKR
# notes: Anti-CEA dAb monomer
# B16: DOM13-58 (other)
# chain: B15 chain with D28G, M32S, A34R, P46L, A51S, Y53H, M91I, D93T, Y94K, V96F
# notes: Anti-CEA dAb monomer
# B17: DOM13-95 (other)
# chain: B15 chain with T5S, M91L, R92G, D93A, Y94K, V96H
# notes: Anti-CEA dAb monomer
# B18: DOM 11-3-1/DOM 12-45-2 (bispecific antibody, V domains shown)
# V domain 1: B10 chain
# V domain 2: DIQMTQSPSSLSASVGDRVTITCRASQDIGGRLRWYQQKPGKAPKLLIYHGSRLDSGVPSRFSGSRSGADFTLTISSLQPEDFATYYCQQQWYRPYTFGQGTKVEIKR
# B19: DOM 11-3-15/DOM 12-45-2 (bispecific antibody, V domains shown)
# V domain 1: B10 chain with H27Q, R63S, S65T
# V domain 2: B18 V domain 2
# B20: DOM 11-3-20/DOM 12-45-2 (bispecific antibody, V domains shown)
# V domain 1: B10 chain with M4T, H27Q, A51S, R63S, S97M
# V domain 2: B18 V domain 2
# B21: DOM 11-3-23/DOM 12-45-2 (bispecific antibody, V domains shown)
# V domain 1: B10 chain with H27Q, R63S, S97A, K103R
# V domain 2: B18 V domain 2
# B22: DOM11-24 (other)
# chain: B6 chain with S30H, G31D, E32Y, T34S, F50L, I53R, R91Y, K92H, L93K, R94G
# notes: Anti-CD38 dAb monomer
# B23: DOM11-32 (other)
# chain: B6 chain with E28W, S30G, G31D, E32S, T34V, S51G, R91H, L93T, R94S, Y96S
# notes: Anti-CD38 dAb monomer
# B24: DOM11-37 (other)
# chain: DIQMTQSPSSLSAFVGDRVTITCRASQDIEGQLRWYQQKPGKAPKLLIYFGSLLQSGVPSRFSGSGSGTVYTLTISSLQPEDFATYYCQQSHLFPATFGQGTKVEIKR
# notes: Anti-CD38 dAb monomer
# B25: DOM11-38 (other)
# chain: DIQVTQSPSSLSASVGDRVTITCRASQEISSCLNWYQQKPGKAPKLLIYCTSVLQSGVPSRFSGSGSGTDFTLTISSLQPEDFATYYCQQRFGNPLTFGQGTKVEIKR
# notes: Anti-CD38 dAb monomer
# B26: DOM11-39 (other)
# chain: DIQMTQSPSSLSASVGDRVTITCRASQPIDGNLRWYQQKPGKAPRLLIYFTSILQSGVPSRFSGSGSGTDFTLTISSLQPEDFATYYCQQHRHWPATFGQGTKVEIKR
# Molecular target: T2, CD56 immobilised on Biacore CM5 chip (UniProt P13591 20-718, limits assumed)
# T2 construct: also called DOM14
# Experiment: Biacore, CD56 immobilised
# Protocol: (§1) Anti-CD38, anti-CEA and anti-CD56 dAbs that were identified as FACS positive clones were in addition analysed by Biacore using the following procedure. The CM5 chip surface was activated by flushing 1:1 EDC/NHS (0.4M1-ethyl-3-(3-dimenthylaminopropyl)-carbodiimide in water; 0.1 M N-hydroxysuccinimide in water) at a flow rate of 5 uL/min for 10 minute contact time. CD38 was immobilised at 500 nM in Acetate buffer pH4 at 5 uL/min this was repeated until the RUs reached between 500 and 1000 (low density). CEA and CD56 were coupled in acetate buffer pH 4.5. Any excess reactive groups were deactivated by running 1M ethanolamine-HCl over the CM5 chip (again 5 uL/min for 7 mins). The affinities of the anti-CD38, anti-CEA and anti-CD56 dAbs were measured on the biacore as described above.
Binder,Kd,binding result
B1,100 to 200 nM,–
B2,100 nM,–
B3,500 to 800 nM,–
B4,–,no binding
B5,–,no binding
B6,–,no binding

# Molecular target: T3, CD38 immobilised on Biacore CM5 chip (UniProt P28907 43-300, limits assumed)
# T3 construct: also called DOM11
# Experiment: Biacore, CD38 immobilised
# Protocol: as §1
# Affinity maturation libraries were created for the anti-CD38 dAbs DOM11-3 and DOM11-30 by error prone PCR. […] Initial screening was carried out by BIAcore (as described previously) and subsequently by FACS.
row,Binder,Kd
1,B7,62 to 76 nM
2,B8,19 nM
3,B9,86 to 93 nM
4,B10,62 nM
5,B11,130 to 160 nM

# Molecular target: T1, NCA on H647 cells
# Experiment: FACS on H647 cells (CEA-/NCA+)
# Protocol: (§2) All dAbs were analysed by FACS on antigen positive and negative cell lines using the following method.
# (§3) The determination of cell binding by FACS was carried out as follows: cells were centrifuged at 250 g for 5 minutes and the growth medium was removed. The cells were resuspended in FACS incubation buffer at 4° C. at a density of 2×10⁶ cells/ml. The cells were blocked by incubating for 15 minutes at 4° C. in FACS incubation buffer. Fifty microliters of 2× stock of primary antibody (anti-CD38 FITC, anti-CD138 FITC or mIgG1 FITC conjugated isotype control (all BD Biosciences) was added; or dAb was added to cells in FACS incubation buffer and incubated for 30-60 minutes at 4° C. The cells were then washed once in FACS incubation buffer. One hundred microliters of secondary antibody (rabbit anti-Vk) was added to cells in FACS incubation buffer and incubated 30-60 minutes at 4° C. The cells were washed once in FACS incubation buffer. Then 100 ul of 1× tertiary antibody was added to the cells in FACS incubation buffer and incubated for 30-60 mins at 4° C. (for dAbs the tertiary antibody is anti-rabbit FITC (Sigma)). The cells were washed twice in FACS incubation buffer. The cell pellet was resuspend in 200 ul FACS incubation buffer+viable cell marker (BD Viaprobe). The cells were then analyzed by flow cytometry.
row,Binder,binding result
1,B12,no binding
2,B13,no binding
3,B14,no binding
4,B15,no binding
5,B16,no binding
6,B17,no binding

# Molecular target: T4, CD38 and CD138 co-expressed on cells (CD38+/CD138+ double positive cells) (UniProt P28907 1-300; P18827 23-310)
# T4 construct: whole, on cells; Two separate membrane proteins on the same cell, not a complex; also called RPMI8226; OPM2
# Experiment: FACS cell binding titration on OPM2 cells (CD38+/CD138+), arithmetic mean fluorescence. The table prints no unit; the unit is taken from the x axis 'log conc in nm' (nanomolar).
# Protocol: as §3
# Anti-CD38 and anti-CD138 affinity matured dAbs were paired to create dual specific ligands by cloning an anti-CD38 dAb and an anti-CD138 dAb into a dual expression vector. To determine if the increased affinity of the monomers was reflected in increased binding affinity of the dual specific ligand, a range of the affinity matured anti-CD38 dAbs were paired with the anti-CD138 dAb DOM12-45, a range of affinity matured anti-CD138 dAbs were paired with anti-CD38 dAbs, and a range of affinity matured anti-CD38 dAbs and affinity matured anti-CD138 dAbs were paired. All dual specific ligands were expressed in E. coli and purified using protein L agarose followed by Resource S cation exchange chromatography when required. The binding affinity of the dual specific ligands was assessed by FACS as described previously. In this study, a range of concentrations was used to allow determination of EC50.
row,Binder,EC50
1,B18,13.8 nM
2,B19,16.7 nM
3,B20,11.9 nM
4,B21,11 nM

# Molecular target: T5, CD38 on cells (UniProt P28907 1-300)
# T5 construct: whole, on cells; Endogenous CD38 on cell lines used in FACS or microscopy; also called DOM11; T10
# Experiment: FACS on RPMI cells (CD38+/138+)
# Protocol: as §2, §3
row,Binder,binding result
1,B22,binds
2,B23,binds
3,B24,binds
4,B25,binds
5,B26,binds
